In patent US20250296995A1 (GlaxoSmithKline, published 2025):
Residue numbers refer to the chain shown, from its start. “And” between values parts separate entries of the source, which are not always exact repeats. Equal values may be shown once.

What was measured:
[1] = target: T1, recombinant CNTNAP2 protein (human, UniProt Q9UHC6 28-1262); assay: SPR with recombinant protein
T1 sequence (looked up): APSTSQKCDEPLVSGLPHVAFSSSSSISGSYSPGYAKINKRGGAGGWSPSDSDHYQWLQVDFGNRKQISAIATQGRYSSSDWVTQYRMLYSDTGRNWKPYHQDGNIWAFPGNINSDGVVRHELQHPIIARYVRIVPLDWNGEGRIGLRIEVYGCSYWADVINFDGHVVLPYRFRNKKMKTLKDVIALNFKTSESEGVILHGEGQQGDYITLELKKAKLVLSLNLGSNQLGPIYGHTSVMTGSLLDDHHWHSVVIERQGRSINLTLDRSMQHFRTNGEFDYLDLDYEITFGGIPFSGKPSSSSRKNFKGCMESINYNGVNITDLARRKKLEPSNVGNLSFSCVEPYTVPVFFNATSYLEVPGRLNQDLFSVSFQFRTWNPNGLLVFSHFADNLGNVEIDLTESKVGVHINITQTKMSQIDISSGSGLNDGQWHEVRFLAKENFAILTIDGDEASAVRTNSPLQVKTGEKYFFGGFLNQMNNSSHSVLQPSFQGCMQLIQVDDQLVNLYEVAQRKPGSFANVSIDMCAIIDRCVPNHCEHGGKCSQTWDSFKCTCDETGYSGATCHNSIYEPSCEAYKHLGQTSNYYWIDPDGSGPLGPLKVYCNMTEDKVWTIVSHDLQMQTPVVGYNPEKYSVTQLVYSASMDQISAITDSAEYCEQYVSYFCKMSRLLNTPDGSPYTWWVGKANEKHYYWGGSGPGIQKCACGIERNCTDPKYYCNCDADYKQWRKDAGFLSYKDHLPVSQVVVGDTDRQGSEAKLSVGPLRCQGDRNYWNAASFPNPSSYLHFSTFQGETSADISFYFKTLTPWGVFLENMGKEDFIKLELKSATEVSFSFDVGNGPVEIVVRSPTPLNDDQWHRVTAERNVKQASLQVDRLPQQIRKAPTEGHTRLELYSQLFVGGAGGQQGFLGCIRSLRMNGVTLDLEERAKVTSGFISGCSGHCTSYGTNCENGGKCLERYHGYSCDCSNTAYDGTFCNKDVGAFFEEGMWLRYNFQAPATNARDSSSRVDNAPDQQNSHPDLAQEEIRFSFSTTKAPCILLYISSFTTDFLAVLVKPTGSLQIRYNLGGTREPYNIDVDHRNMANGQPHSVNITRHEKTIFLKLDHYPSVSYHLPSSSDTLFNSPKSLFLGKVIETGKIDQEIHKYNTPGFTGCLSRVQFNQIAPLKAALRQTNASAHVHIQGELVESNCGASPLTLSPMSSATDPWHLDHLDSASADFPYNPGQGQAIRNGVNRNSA

[2] = target: recombinant Plasmodium falciparum circumsporozoite protein (CSP) (Plasmodium falciparum, UniProt P19597 21-375); assay: cell-based or functional assay
Target sequence in this assay (P19597 21-375 limits assumed): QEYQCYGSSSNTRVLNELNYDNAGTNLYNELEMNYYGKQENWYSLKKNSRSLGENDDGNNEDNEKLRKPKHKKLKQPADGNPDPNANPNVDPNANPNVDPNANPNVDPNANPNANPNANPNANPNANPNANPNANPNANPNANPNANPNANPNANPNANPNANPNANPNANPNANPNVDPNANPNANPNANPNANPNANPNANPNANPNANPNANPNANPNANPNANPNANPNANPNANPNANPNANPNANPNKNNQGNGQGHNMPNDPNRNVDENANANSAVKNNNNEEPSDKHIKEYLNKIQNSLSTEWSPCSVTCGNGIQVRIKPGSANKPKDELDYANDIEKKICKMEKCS

[3] = target: T2, human FcRn (human, UniProt P55899 24-297; P61769 21-119); assay: SPR, human FcRn, pH 6.0
T2 construct: also called neonatal Fc receptor
T2 sequence (P55899 24-297 limits assumed, form in doubt, chain 1 of 2): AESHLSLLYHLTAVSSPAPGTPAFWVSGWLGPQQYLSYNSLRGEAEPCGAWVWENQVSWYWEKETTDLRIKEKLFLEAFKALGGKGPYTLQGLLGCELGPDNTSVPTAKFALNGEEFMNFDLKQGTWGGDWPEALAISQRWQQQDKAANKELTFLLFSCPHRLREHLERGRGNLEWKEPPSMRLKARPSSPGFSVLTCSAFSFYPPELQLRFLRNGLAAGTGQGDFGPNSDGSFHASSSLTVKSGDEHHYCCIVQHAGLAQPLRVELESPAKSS
T2 sequence (P61769 21-119 limits assumed, form in doubt, chain 2 of 2): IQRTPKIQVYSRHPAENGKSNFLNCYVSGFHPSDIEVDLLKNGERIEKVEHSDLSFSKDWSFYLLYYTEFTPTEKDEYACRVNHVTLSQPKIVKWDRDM

[4] = target: T3, human FcγRIIIa (V158) (human, UniProt P08637 17-208); assay: SPR, human FcγR
T3 construct: also called hFcγRIIIaV
T3 sequence (P08637 17-208 F176V limits assumed): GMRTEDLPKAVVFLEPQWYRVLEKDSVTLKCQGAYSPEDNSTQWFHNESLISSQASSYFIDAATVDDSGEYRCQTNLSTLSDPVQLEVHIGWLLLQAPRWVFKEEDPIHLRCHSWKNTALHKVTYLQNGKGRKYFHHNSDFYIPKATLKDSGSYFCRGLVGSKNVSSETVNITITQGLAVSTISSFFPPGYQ
Excerpt: (§1) A human IgG1 antibody in both WT and Fc silenced (LAGA) formats were included as negative control.

[5] = target: T4, human FcγRIIIa (F158) (human, UniProt P08637 17-208); assay: SPR, human FcγR
T4 construct: also called hFcγRIIIaF
T4 sequence (P08637 17-208 limits assumed): as the sequence (P08637 17-208 F176V limits assumed) above, with V160F counted along it
Excerpt: as §1

[6] = target: T5, human FcγRIIb (human, UniProt P31994 43-217); assay: SPR, human FcγR
T5 construct: also called hFcγRIIb
T5 sequence (looked up): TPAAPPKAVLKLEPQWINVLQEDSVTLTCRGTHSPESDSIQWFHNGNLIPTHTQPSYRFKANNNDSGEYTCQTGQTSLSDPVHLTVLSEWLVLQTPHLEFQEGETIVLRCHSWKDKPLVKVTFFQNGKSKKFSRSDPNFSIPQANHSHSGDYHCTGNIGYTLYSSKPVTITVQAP
Excerpt: as §1

[7] = target: T6, human FcγRI (human, UniProt P12314 16-288); assay: SPR, human FcγR
T6 construct: also called hFcγRI; CD64
T6 sequence (P12314 16-288 limits assumed): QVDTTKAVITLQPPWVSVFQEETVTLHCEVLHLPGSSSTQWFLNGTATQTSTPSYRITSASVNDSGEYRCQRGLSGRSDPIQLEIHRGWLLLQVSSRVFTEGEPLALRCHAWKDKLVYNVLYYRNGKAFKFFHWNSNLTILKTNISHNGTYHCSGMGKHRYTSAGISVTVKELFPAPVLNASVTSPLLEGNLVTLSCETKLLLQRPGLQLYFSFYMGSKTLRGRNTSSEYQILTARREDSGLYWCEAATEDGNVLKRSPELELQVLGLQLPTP
Excerpt: as §1

[8] = target: T7, human FcγRIIa (R131) (human, UniProt P12318 36-218); assay: SPR, human FcγR
T7 construct: also called hFcγRIIaR
T7 sequence (looked up): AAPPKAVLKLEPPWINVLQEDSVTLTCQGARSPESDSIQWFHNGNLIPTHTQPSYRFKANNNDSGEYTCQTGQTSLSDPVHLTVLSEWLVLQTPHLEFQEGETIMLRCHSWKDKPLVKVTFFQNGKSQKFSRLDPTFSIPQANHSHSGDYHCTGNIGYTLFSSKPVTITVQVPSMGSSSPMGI
Excerpt: as §1

[9] = target: T8, human FcγRIIa (H131) (human, UniProt P12318 36-218); assay: SPR, human FcγR
T8 construct: also called hFcγRIIaH
T8 sequence (looked up): T7 sequence (looked up) with R132H
Excerpt: as §1

[10] = target: T9, recombinant Plasmodium falciparum circumsporozoite protein (CSP) (Plasmodium falciparum, UniProt P19597 21-375); assay: cell-based or functional assay; remark: listed apart in the source
T9 sequence (P19597 21-375 limits assumed): as the sequence (P19597 21-375 limits assumed) above

[11] = target: T9, recombinant Plasmodium falciparum …; assay: cell-based or functional assay; remark: listed apart in the source
[12] = target: T9, recombinant Plasmodium falciparum …; assay: SPR, recombinant CSP; n=1
[13] = target: T9, recombinant Plasmodium falciparum …; assay: cell-based or functional assay; remark: listed apart in the source
[14] = target: T9, recombinant Plasmodium falciparum …; assay: SPR, recombinant CSP; geometric mean, n=3

B1: 356-ALE-LS (antibody, human IgG1, kappa)
heavy: QVQLVESGGGVVQPGRSLRLSCAASGFTFRNFGMHWVRQTPGKGLEWVAVIWHDGSNKFYADSVEGRFTISRDNSKNMIYLQMNSLRVEDTAIYYCARDSLFYDHDNSGYYGYWGQGTLVTVSSASTKGPSVFPLAPSSKSTSGGTAALGCLVKDYFPEPVTVSWNSGALTSGVHTFPAVLQSSGLYSLSSVVTVPSSSLGTQTYICNVNHKPSNTKVDKKVEPKSCDKTHTCPPCPAPELLAGPSVFLFPPKPKDTLMISRTPEVTCVVVDVSHEDPEVKFNWYVDGVEVHNAKTKPREEQYNSTYRVVSVLTVLHQDWLNGKEYKCKVSNKALPLPEEKTISKAKGQPREPQVYTLPPSRDELTKNQVSLTCLVKGFYPSDIAVEWESNGQPENNYKTTPPVLDSDGSFFLYSKLTVDKSRWQQGNVFSCSVLHEALHSHYTQKSLSLSPGK
light: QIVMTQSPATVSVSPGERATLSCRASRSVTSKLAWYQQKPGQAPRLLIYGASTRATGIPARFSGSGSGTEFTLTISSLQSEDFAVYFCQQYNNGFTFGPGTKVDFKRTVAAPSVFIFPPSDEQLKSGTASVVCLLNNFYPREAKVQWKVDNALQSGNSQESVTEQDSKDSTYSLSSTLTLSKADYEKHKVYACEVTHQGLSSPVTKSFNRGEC
With B1 the binding result [1] was “no binding (tested: 300 nM)” and the “EC50 in ADCP assay” value [2] was < 0.001 nM.

B2: 356-DEA-FV-LS (antibody, human IgG1, kappa)
heavy: B1 heavy with S246D, T257V, A294F, L337A
light: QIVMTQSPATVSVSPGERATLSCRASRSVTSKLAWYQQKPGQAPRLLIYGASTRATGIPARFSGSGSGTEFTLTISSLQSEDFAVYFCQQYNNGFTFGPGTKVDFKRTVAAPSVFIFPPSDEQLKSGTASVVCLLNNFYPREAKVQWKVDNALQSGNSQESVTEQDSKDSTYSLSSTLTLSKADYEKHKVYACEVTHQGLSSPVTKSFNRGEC
In the case of B2, the binding result [1] is reported as “no binding (tested: 300 nM)” and the “EC50 in ADCP assay” value [2] is reported as < 0.001 nM.

B3: AB-000356 ALE LS (antibody, human IgG1, kappa)
heavy: B1 heavy
light: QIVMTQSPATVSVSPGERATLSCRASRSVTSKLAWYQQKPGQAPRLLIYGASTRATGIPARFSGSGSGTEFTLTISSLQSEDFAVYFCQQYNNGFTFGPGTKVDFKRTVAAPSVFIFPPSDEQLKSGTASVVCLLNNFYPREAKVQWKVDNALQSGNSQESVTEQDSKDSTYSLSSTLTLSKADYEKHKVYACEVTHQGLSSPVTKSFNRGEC
B3 was tested, and the Kd [3] was 52 nM, the Kd [4] was 73 nM and 144 nM and the Kd [5] was 89 nM and 246 nM. For the same binder, the Kd [6] was 3890 nM, the Kd [7] was 56 nM and 157 nM and the Kd [8] was 675 nM and 766 nM. The Kd [9] was 218 nM and 268 nM, the “GeoMean EC50 (M), ADCP repeat, n=4” value [10] was 6.45e-13 M and the “Mean EC50 (pM), ADCP repeat, n=4” value [10] was 0.6 pM. For the same binder, the “Mean pEC50, ADCP repeat, n=4” value [10] was 12.2, the “Geo Mean EC50 (ug/ml), ADNKA, Donor 1” value [11] was 0.0052 µg/mL and the “Geo Mean EC50 (ug/ml), ADNKA, Donor 2” value [11] was 0.0035 µg/mL. For the same binder, the “Geo Mean EC50 (ug/ml), ADNKA, Donor 3” value [11] was 0.189 µg/mL, the “Geo Mean EC50 (ug/ml), ADNKA, Donor 4” value [11] was 0.0104 µg/mL and the Kd [12] was 1.58 nM. The “GeoMean EC50 (M), ADCP” value [13] was 5.03e-13 M, the “Mean EC50 (pM), ADCP” value [13] was 0.5 pM and the “Mean pEC50, ADCP” value [13] was 12.3. For the same binder, the Kd [14] was 1.1 nM.
